Measurements taken from patent US20220033520A1.

Key:
[1] = molecular target: human FcRn complex (FCGRT and beta-2 microglobulin), recombinant, purified (human) (UniProt P55899); assay: SPR, anti-human Fab capture, pH 6, steady state
[2] = molecular target: human FcRn complex (FCGRT and beta-2 microglobulin), recombinant, purified (human) (UniProt P55899); assay: SPR, protein L capture, pH 7.4, steady state
[3] = molecular target: human FcRn (FCGRT and beta-2 microglobulin) expressed on MDCK II cells (human) (UniProt P55899); assay: cell-based or functional assay
human FcRn (FCGRT and beta-2 microglobulin) expressed on MDCK II cells (human), sequence (P55899 24-365, chain 1 of 2): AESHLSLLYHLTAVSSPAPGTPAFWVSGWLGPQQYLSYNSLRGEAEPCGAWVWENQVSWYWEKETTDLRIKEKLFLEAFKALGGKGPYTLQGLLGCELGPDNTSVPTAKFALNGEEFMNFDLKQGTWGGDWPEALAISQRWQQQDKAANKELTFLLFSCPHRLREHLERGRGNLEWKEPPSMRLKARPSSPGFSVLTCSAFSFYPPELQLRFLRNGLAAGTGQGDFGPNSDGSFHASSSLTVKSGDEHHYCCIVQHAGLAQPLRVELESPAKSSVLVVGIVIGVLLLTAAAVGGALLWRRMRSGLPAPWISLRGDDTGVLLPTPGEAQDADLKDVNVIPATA
human FcRn (FCGRT and beta-2 microglobulin) expressed on MDCK II cells (human), sequence (P61769 21-119, chain 2 of 2, further chain): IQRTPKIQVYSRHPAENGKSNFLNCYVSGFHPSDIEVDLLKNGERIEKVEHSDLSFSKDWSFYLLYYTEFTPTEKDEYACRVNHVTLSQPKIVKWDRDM

[4] = molecular target: human FcRn complex (FCGRT and beta-2 microglobulin), recombinant, purified (human) (UniProt P55899); assay: SPR, anti-human Fab capture, pH 7.4, steady state
[5] = molecular target: human FcRn complex (FCGRT and beta-2 microglobulin), recombinant, purified (human) (UniProt P55899); assay: SPR, protein L capture, pH 6, kinetic
[6] = molecular target: murine FcRn complex (Fcgrt and beta-2 microglobulin), recombinant (mouse) (UniProt Q61559); assay: binding to mFcRn at pH 6.0 (FIG. 2D)
murine FcRn complex (Fcgrt and beta-2 microglobulin), recombinant (mouse), sequence (Q61559 22-297, one chain of several): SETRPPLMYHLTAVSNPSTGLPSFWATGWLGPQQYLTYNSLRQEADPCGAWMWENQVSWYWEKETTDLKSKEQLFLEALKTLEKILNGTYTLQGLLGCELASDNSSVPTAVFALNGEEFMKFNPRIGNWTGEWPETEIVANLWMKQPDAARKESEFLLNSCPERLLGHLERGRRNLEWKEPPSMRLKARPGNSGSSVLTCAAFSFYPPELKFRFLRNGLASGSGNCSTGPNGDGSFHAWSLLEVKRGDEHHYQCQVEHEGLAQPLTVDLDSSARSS

[7] = molecular target: murine FcRn complex (Fcgrt and beta-2 microglobulin), recombinant (mouse) (UniProt Q61559); assay: binding to mFcRn at pH 7.4 (FIG. 2D)

human FcRn complex (FCGRT and beta-2 microglobulin), recombinant, purified (human), sequence (P55899 24-297 limits assumed, chain 1 of 2): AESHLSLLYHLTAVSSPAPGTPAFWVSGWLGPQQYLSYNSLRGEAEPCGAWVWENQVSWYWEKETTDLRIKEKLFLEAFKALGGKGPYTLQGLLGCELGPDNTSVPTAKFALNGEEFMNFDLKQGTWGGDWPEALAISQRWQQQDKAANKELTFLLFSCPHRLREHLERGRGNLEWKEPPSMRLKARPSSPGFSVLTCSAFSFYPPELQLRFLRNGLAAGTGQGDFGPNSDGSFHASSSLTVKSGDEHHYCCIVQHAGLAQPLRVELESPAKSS
human FcRn complex (FCGRT and beta-2 microglobulin), recombinant, purified (human), sequence (P61769 21-119 limits assumed, chain 2 of 2, further chain): as the sequence (P61769 21-119, chain 2 of 2, further chain) above

Substance | Kd [1] | Kd [2] | Transcytosis Normalized to WT (normalized to WT) [3] | Kd [4] | Kd [5] | koff [5] | kon [5] | fold improvement of binding over wild-type hIgG1 [6] | fold improvement of binding over wild-type hIgG1 [7]
anti-BACE1 hIgG1 antibody, Fc modification Q1 (M252Y/T307Q/Q311I/N434Y) | 6.6 nM | 197 nM | 132 | 157 nM | 4.69 nM | 0.00349 s⁻¹ | 743000 M⁻¹ s⁻¹ | – | –
anti-BACE1 hIgG1 antibody, Fc modification Q2 (M252Y/T307Q/M428L/N434Y) | 8.7 nM | 663 nM | 155 | 211 nM | 11.1 nM | 0.00648 s⁻¹ | 582000 M⁻¹ s⁻¹ | – | –
anti-BACE1 hIgG1 antibody, Fc modification Q6 (M252Y/M428L/N434Y/Y436I) | 8.9 nM | 380 nM | 155 | 194 nM | 7.72 nM | 0.00494 s⁻¹ | 639000 M⁻¹ s⁻¹ | – | –
anti-BACE1 hIgG1 antibody, Fc modification Q7 (M252Y/Q311A/N434Y/Y436I) | 7.3 nM | 295 nM | 108 | 269 nM | 6 nM | 0.00529 s⁻¹ | 920000 M⁻¹ s⁻¹ | – | –
anti-BACE1 hIgG1 antibody, Fc modification Q95 (M252Y/T307Q/Q311A/N434Y) | 6.9 nM | 228 nM | 100 | 240 nM | 7.35 nM | 0.00608 s⁻¹ | 828000 M⁻¹ s⁻¹ | – | –
anti-BACE1 hIgG4 antibody, Fc modification Q1-IgG4 (M252Y/T307Q/Q311I/N434Y) | 5.2 nM | 114 nM | 82 | 120 nM | 5.22 nM | – | – | – | –
anti-BACE1 hIgG4 antibody, Fc modification Q5-IgG4 (M252Y/Q311I/N434Y/Y436I) | 7.4 nM | 322 nM | 95 | 230 nM | 13.4 nM | 0.0135 s⁻¹ | 1.01e+06 M⁻¹ s⁻¹ | – | –
hIgG1 antibody comprising modified Fc M252Y/S254T/T256E (YTE) | – | – | 1.9 | – | 154 nM | 0.0635 s⁻¹ | 414000 M⁻¹ s⁻¹ | 10 fold | 10 fold
